Measured values: doi:10.1101/2024.09.06.611628 (bioRxiv, 2024)

Target: T1, CATCH(-) peptide
T1 peptide: Ac-EQEFEFEFEQE-NH2
Test: gelation on mixing

binding result: binds
Binder: Ac-QQKFKFKFKQQ-NH2 [CATCH(+) peptide]
